# Test results published in doi:10.1101/2023.01.23.525163.
# Molecular target: His-caltubin-Tat (cell-penetrating caltubin) (Lymnaea stagnalis | HIV)
# Assay: ITC
binder,measurement,value
"Ac-LDHKFDLMYAKRAFV-NH2 [L391 peptide (synthetic, TUBA1 L391-V405)]",Kd,3.42 µM
